Substrate: O=c1ccn([C@@H]2O[C@H](COP(=O)(O)OP(=O)(O)O[C@H]3O[C@H](CO)[C@H](O)[C@H](O)[C@H]3O)[C@@H](O)[C@H]2O)c(=O)[nH]1
Test: purified protein
Type: biochemical, Oryza sativa
Settings: 30°C, 100 mM glycine buffer pH 8.7, 1 mM NAD+, UDP-Gal varied 0.4-3.2 mM

B1: PHD1 (PHOTO… …1) (Oryza sativa Japonica Group) (protein)
chain: DDTGVKMAGSDIVGKNDLLIVGPGVLGRLVAEKWQEEHPGCKVFGQTASTDHHNELSNIGIIPSLKGSTFPQKVPYVIFCAPPSRSDDYPGDVRVAASNWTGEGSFVFTSSTALYDCSDNELCNEDCPSVPIGRSPRTDVLLKAENVVLEAGGCVLRLAGLYKIDRGAHFFWLRKGTLDTRPDHIINQIHYEDAASLAIAIMKKGHRGRIFLGCDNKPLSRQEIMDSVNRSGKFDTKFQGFTGTDGPLGKKMENSRTRSEIGWEPKYPSFTEFLGLDS
notes: mature protein without putative N-terminal 62-aa chloroplast transit peptide (full length 340 aa); expressed in E. coli; pGEX-4T-1 (GST) in BL21(DE3), glutathione Sepharose purified (described for antibody production)
B1 showed a Km of 840 µM.
